Reference: patent US20210054076A1 (Chugai, published 2021)

What was measured:
Assay in all cases: FACS on Ba/F3 transfectant, antibody 20 micro g/ml, FITC anti-human IgG
human CLDN3 = target: T1, human CLDN3 (human, UniProt O15551 1-220)
T1 construct: whole, on cells; also called hCLDN3; BaF3_hCLDN3
T1 sequence (looked up): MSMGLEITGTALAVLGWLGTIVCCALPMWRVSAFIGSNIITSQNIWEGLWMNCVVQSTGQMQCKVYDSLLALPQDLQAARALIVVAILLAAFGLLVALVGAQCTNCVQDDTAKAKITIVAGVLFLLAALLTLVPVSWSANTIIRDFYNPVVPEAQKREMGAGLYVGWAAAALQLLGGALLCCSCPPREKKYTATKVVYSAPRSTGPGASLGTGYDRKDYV
Procedure: (§1) To evaluate the binding activity and specificity of the generated CLDN6-TRABs against CLDN6 and other Claudin family antigens, FACS analysis was conducted as follows. Ba/F3 transfectants stably express a kind of protein selected from human CLDN3 (hCLDN3), human CLDN4 (hCLDN4), human CLDN6 (hCLDN6), human CLDN9 (hCLDN9), mouse CLDN3 (mCLDN3), mouse CLDN4 (mCLDN4) and mouse CLDN6 (mCLDN6), were generated using similar method described in WO2008/087978, and named BaF3_hCLDN3, BaF3_hCLDN4, BaF3_hCLDN6, BaF3_hCLDN9, BaF3 mCLDN3, BaF3 mCLDN4, BaF3 mCLDN6, respectively. Each of the CLDN6-TRABs (CH01/CD3, CH02/CD3, CH03/CD3, CH04/CD3) was incubated with the Ba/F3 transfectants at an antibody concentration of 20 micro g/ml in FACS buffer (0.5% BSA containing autoMACS Rinsing Solution, Miltenyl Biotec). Binding activities of each CLDN6-TRAB to the Claudin family proteins (hCLDN3, hCLDN4, hCLDN6, hCLDN9, mCLDN3, mCLDN4, mCLDN6) were examined by incubation of FITC-conjugated goat anti human IgG (BeckmanCoulter), represented as Geo-mean value. Sample processing was conducted on FACSVerse (BD).
(§2) Claudin family proteins have two extracellular domains. The sequence of the first extracellular domain in human CLDN9 is almost the same compared with the first extracellular domain of human CLDN6. For the second extracellular domain of human CLDN9, there are only two amino acids different from the ones at their corresponding positions in human CLDN6 (FIG. 2). The glutamine at position 156 of human Claudin 6 (position 156 in the sequence shown in SEQ ID NO: 44 or 45) was substituted to leucine to make a human CLDN6 mutant comprising the same amino acid as human Claudin 9 at position 156. This human CLDN6 mutant was named as hCLDN6(Q156L) (SEQ ID NO: 53). Ba/F3 transfectant stably express hCLDN6(Q156L) was generated using similar method described in WO2008/087978. The established Ba/F3 transfectant was named BaF3_hCLDN6(Q156L). Binding activity of the generated CLDN6-TRABs against BaF3_hCLDN6(Q156L) was measured using the above mentioned FACS method and the results are shown in FIG. 1 and Table 3.

hCLDN6(Q156L) = target: T2, hCLDN6(Q156L) (human, UniProt P56747 1-220)
T2 construct: Stably expressed on Ba/F3 cells; also called human CLDN6 mutant; BaF3_hCLDN6(Q156L)
T2 chain: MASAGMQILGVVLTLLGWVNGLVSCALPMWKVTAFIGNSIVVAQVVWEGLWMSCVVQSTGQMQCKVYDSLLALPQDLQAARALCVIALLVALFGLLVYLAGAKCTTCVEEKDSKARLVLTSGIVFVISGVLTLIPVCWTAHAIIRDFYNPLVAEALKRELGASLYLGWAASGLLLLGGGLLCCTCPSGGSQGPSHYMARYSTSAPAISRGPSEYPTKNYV
Procedure: as §1, §2

human CLDN9 = target: T3, human CLDN9 (human, UniProt O95484 1-217)
T3 construct: whole, on cells; also called hCLDN9; BaF3_hCLDN9
T3 sequence (looked up): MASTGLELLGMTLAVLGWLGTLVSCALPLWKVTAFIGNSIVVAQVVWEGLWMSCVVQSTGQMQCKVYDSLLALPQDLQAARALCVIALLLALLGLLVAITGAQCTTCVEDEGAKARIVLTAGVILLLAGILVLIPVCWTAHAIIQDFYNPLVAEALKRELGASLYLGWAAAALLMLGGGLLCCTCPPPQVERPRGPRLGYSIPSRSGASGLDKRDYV
Procedure: as §1, §2

human CLDN6 = target: T4, human CLDN6 (human, UniProt P56747 1-220)
T4 construct: 45 is entered here, 44 is equally possible; also called hCLDN6; human Claudin 6
T4 sequence: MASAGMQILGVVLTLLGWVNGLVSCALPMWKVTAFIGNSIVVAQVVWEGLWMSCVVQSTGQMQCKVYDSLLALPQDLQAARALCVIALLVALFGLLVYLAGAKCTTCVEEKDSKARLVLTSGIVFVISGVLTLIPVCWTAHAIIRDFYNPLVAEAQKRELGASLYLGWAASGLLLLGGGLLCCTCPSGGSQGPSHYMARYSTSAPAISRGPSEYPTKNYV
Procedure: as §1, §2

mouse CLDN3 = target: T5, mouse CLDN3 (mouse, UniProt Q9Z0G9 1-219)
T5 construct: whole, on cells; also called mCLDN3; BaF3_mCLDN3
T5 sequence (looked up): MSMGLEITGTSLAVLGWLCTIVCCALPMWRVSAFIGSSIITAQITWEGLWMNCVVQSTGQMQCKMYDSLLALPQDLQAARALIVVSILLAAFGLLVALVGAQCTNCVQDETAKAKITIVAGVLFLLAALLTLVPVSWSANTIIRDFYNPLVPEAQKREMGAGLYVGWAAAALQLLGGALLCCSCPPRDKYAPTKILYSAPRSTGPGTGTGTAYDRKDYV
Procedure: as §1, §2

mouse CLDN4 = target: T6, mouse CLDN4 (mouse, UniProt O35054 1-210)
T6 construct: whole, on cells; also called mCLDN4; BaF3_mCLDN4
T6 sequence (looked up): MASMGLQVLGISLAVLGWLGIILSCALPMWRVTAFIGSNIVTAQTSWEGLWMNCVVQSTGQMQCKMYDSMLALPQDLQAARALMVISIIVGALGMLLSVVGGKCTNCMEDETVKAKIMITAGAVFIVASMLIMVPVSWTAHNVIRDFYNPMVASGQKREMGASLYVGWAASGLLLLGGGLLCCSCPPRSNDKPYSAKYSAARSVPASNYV
Procedure: as §1, §2

Geo-mean value of FACS (human CLDN3): 36
Geo-mean value of FACS (hCLDN6(Q156L)): 80
Geo-mean value of FACS (human CLDN9): 186
Geo-mean value of FACS (human CLDN6): 3480
Geo-mean value of FACS (mouse CLDN3): 27
Geo-mean value of FACS (mouse CLDN4): 23
B1: CH04/CD3 (bispecific antibody, human IgG1, kappa, N297A)
heavy 1: EVQLQQSGPELVKPGASMKISCKASGYSFTGYTMNWVKQSHGKNLEWIGLINPYNGGTIYNQKFKGKATLTVDKSSSTAYMELLSLTSEDSAVYYCARDYGFVLDYWGQGTTLTVSSASTKGPSVFPLAPSSKSTSGGTAALGCLVKDYFPEPVTVSWNSGALTSGVHTFPAVLQSSGLYSLSSVVTVPSSSLGTQTYICNVNHKPSNTKVDKKVEPKSCDKTHTCPPCPAPELRGGPKVFLFPPKPKDTLMISRTPEVTCVVVDVSHEDPEVKFNWYVDGVEVHNAKTKPREEQYASTYRVVSVLTVLHQDWLNGKEYKCKVSNKALPAPIEKTISKAKGQPREPQVYTLPPSREEMTKNQVSLTCLVKGFYPSDIAVEWESNGQPENNYKTTPPYLDSDGSFFLYSKLTVDKSRWQQGNVFSCSVMHEALHNHYTQESLSLSP
light 1: DIVLTQSPSIMSVSPGEKVTITCSASSSVSYMHWFQQKPGTSPKLCIYSTSNLASGVPARFSGRGSGTSYSLTISRVAAEDAATYYCQQRSNYPPWTFGGGTKLEIKRTVAAPSVFIFPPSDEQLKSGTASVVCLLNNFYPREAKVQWKVDNALQSGNSQESVTEQDSKDSTYSLSSTLTLSKADYEKHKVYACEVTHQGLSSPVTKSFNRGEC
heavy 2: QVQLVESGGGVVQPGGSLRLSCAASGFTFSNAWMHWVRQAPGKGLEWVAQIKDKSQNYATYVAESVKGRFTISRADSKNSIYLQMNSLKTEDTAVYYCRYVHYAAGYGVDIWGQGTTVTVSSASTKGPSVFPLAPSSKSTSGGTAALGCLVKDYFPEPVTVSWNSGALTSGVHTFPAVLQSSGLYSLSSVVTVPSSSLGTQTYICNVNHKPSNTKVDKKVEPKSCDKTHTCPPCPAPELRGGPKVFLFPPKPKDTLMISRTPEVTCVVVDVSHEDPEVKFNWYVDGVEVHNAKTKPREEQYASTYRVVSVLTVLHQDWLNGKEYKCKVSNKALPAPIEKTISKAKGQPREPQVYTLPPSRKEMTKNQVSLTCLVKGFYPSDIAVEWESNGQPENNYKTTPPYLDSDGSFFLYSKLTVDKSRWQQGNVFSCSVMHEALHNHYTQKSLSLSP
light 2: DIVMTQSPLSLPVTPGEPASISCRSSQPLVHSNRNTYLHWYQQKPGQAPRLLIYKVSNRFSGVPDRFSGSGSGTDFTLKISRVEAEDVGVYYCGQGTQVPYTFGQGTKLEIKRTVAAPSVFIFPPSDEQLKSGTASVVCLLNNFYPREAKVQWKVDNALQSGNSQESVTEQDSKDSTYSLSSTLTLSKADYEKHKVYACEVTHQGLSSPVTKSFNRGEC
notes: Made by Fab arm exchange of the bivalent anti-CLDN6 antibody CH04 with the bivalent anti-CD3 antibody CD3-1; human IgG1 constant region; One anti-CLDN6 arm and one anti-CD3 arm; also called CLDN6-TRAB; CLDN6-targeted T-cell redirecting bispecific antibody
